Reference: article PMC2542469 (The Journal of Cell Biology, 2008)

Target: T1, Full-length human histidine-tagged Ndel1 phosphorylated in vitro by both cdk5/p25 and cdk1/cyclin B (human, UniProt Q9GZM8 1-345)
T1 sequence: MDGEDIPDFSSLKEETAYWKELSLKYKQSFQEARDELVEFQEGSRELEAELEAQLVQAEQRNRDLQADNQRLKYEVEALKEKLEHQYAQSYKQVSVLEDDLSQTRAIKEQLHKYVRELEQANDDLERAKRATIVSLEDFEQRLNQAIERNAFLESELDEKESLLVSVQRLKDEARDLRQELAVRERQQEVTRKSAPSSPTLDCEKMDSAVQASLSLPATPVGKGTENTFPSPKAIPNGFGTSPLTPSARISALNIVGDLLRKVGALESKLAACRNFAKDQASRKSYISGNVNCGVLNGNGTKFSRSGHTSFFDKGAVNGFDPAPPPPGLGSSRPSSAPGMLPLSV
Assay: co-IP

- fold more Lis1 pulled down than by unphosphorylated Ndel1: ~5 fold
B1: Full-length Lis1, histidine tag cleaved (natural protein)
chain: MVLSQRQRDELNRAIADYLRSNGYEEAYSVFKKEAELDVNEELDKKYAGLLEKKWTSVIRLQKKVMELESKLNEAKEEFTSGGPLGQKRDPKEWIPRPPEKYALSGHRSPVTRVIFHPVFSVMVSASEDATIKVWDYETGDFERTLKGHTDSVQDISFDHSGKLLASCSADMTIKLWDFQGFECIRTMHGHDHNVSSVAIMPNGDHIVSASRDKTIKMWEVQTGYCVKTFTGHREWVRMVRPNQDGTLIASCSNDQTVRVWVVATKECKAELREHEHVVECISWAPESSYSSISEATGSETKKSGKPGPFLLSGSRDKTIKMWDVSTGMCLMTLVGHDNWVRGVLFHSGGKFILSCADDKTLRVWDYKNKRCMKTLNAHEHFVTSLDFHKTAPYVVTGSVDQTVKVWECR
